± gives the uncertainty stated by the source.
Experiment: self-splicing fitness, log relative to wild type (ln ratio); higher = more splicing; Tetrahymena group I intron in knt gene, E. coli kanamycin selection, DiMSum; sequences stand for … in CUCUCU…GGAGGGAAAAGUUAUCAGGCAUGCACCUGGUAGCUAGUCUUUAAACCAAUAGAUUGCAUCGGUUUAAAAGGCAAGACCGUCAAAUUGCGGGAAAGGGGUCAACAGCCGUUCAGUACCAAGUCUCAGGGGAAACUUUGAGAUGGCCUUGCAAAGGGUAUGGUAAUAAGCUGACGGACAUGGUCCUAACCACGCAGCCAAGUCCUAAGUCAACAGAUCUUCUGUUGAUAUGGAUGCAGUUCACAGACUAAAUGUCGGUCGGGGAAGAUGUAUUCUUCUCAUAAGAUAUAGUCGGACCUCUCCUUAAUGGGAGCUAGCGGAUGAAGUGAUGCAACACUGGAGCCGCUGGGAACUAAUUUGUAUGCGAAAGUAUAUUGAUUAGUUUUGGAGUACUCGUGGUCG
Procedure, shortened: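 Library with all eight P1ex-region intron nucleotides randomised, intron inside the knt kanamycin-resistance gene on pET-22b(+), in E. coli BL21(DE3). Cells grew overnight at 37°C or 30°C on LB agar with or without 25 μg/mL kanamycin (plus 100 μg/mL carbenicillin, 50 μM IPTG, 0.2% rhamnose), in six replicate transformations. Pooled colonies were amplicon-sequenced on Illumina HiSeq 2500. DiMSum fitness is the error-weighted combination of wild-type-normalised replicate fold changes, kanamycin versus none.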

Sequence	self-splicing fitness (ln) (30 °C)	self-splicing fitness (ln) (37 °C)
AAGCAGCAAUAUUACGAUCU	-0.0506 ± 0.075	0.801 ± 0.09
AAGCAGCAAUAUUACGCAUU	-2.49 ± 0.12	-1.23 ± 0.12
AAGCAGCAAUAUUACGCCGC	–	-2.37 ± 0.45
AAGCAGCAAUAUUACGGCUA	-0.14 ± 0.066	0.0975 ± 0.086
AAGCAGCAAUAUUACGGUGG	-3.64 ± 0.18	-1.98 ± 0.17
AAGCAGCAAUAUUACGUAAC	-2.67 ± 0.11	-1.94 ± 0.14
AAGCAGCAAUAUUACGUGCA	-0.892 ± 0.065	-0.453 ± 0.084
AAGCAGCAAUAUUACGUUCG	-1.98 ± 0.089	-0.509 ± 0.1
AAGCAGCAAUAUUACGUUGG	-3.77 ± 0.17	-1.45 ± 0.11
AAGGAGCAAUAUUACGAAAG	-2.93 ± 0.21	–
AAGGAGCAAUAUUACGACCG	-2.16 ± 0.29	–
AAGGAGCAAUAUUACGACUG	-1.75 ± 0.16	-1.05 ± 0.18
AAGGAGCAAUAUUACGACUU	-1.12 ± 0.086	-1.26 ± 0.1
AAGGAGCAAUAUUACGAGGA	-3.21 ± 0.46	-1.95 ± 0.38
AAGGAGCAAUAUUACGAUUA	–	-1.96 ± 0.28
AAGGAGCAAUAUUACGCCUA	-1.21 ± 0.15	-1.35 ± 0.14
AAGGAGCAAUAUUACGCCUG	-2.1 ± 0.28	-0.484 ± 0.44
AAGGAGCAAUAUUACGCGAC	-2.44 ± 0.41	-1.54 ± 0.35
AAGGAGCAAUAUUACGCUUA	-1.49 ± 0.17	-1.1 ± 0.16
AAGGAGCAAUAUUACGGCAC	-1.23 ± 0.47	-1.62 ± 0.46

Sequence	self-splicing fitness (ln) (30 °C)	self-splicing fitness (ln) (37 °C)
AAGGAGCAAUAUUACGGGGC	-3.81 ± 0.22	-2.34 ± 0.16
AAGGAGCAAUAUUACGGUCG	-2.96 ± 0.22	–
AAGGAGCAAUAUUACGUAUC	–	-2.8 ± 0.44
AAGGAGCAAUAUUACGUCCA	-1.29 ± 0.16	-0.459 ± 0.16
AAGGAGCAAUAUUACGUCCC	0.0851 ± 0.15	-1.06 ± 0.23
AAGGAGCAAUAUUACGUCGA	-1.74 ± 0.2	-1.89 ± 0.2
AAGGAGCAAUAUUACGUCGG	-3.13 ± 0.19	-2.74 ± 0.33
AAGGAGCAAUAUUACGUCGU	-2.73 ± 0.11	-0.982 ± 0.12
AAGUAGCAAUAUUACGAAAU	-2.3 ± 0.2	-0.59 ± 0.18
AAGUAGCAAUAUUACGACGC	-0.792 ± 0.12	0.204 ± 0.14
AAGUAGCAAUAUUACGAGGC	-3.44 ± 0.29	–
AAGUAGCAAUAUUACGAUAA	-1.36 ± 0.12	-1.09 ± 0.13
AAGUAGCAAUAUUACGAUUA	-0.56 ± 0.1	-0.688 ± 0.08
AAGUAGCAAUAUUACGAUUC	-0.923 ± 0.12	-0.577 ± 0.15
AAGUAGCAAUAUUACGCACA	-0.522 ± 0.088	-0.00649 ± 0.14
AAGUAGCAAUAUUACGCACG	-1.5 ± 0.13	0.587 ± 0.13
AAGUAGCAAUAUUACGCGGA	-2.09 ± 0.18	-1.04 ± 0.15
AAGUAGCAAUAUUACGCGUC	-1.96 ± 0.12	-2 ± 0.19
AAGUAGCAAUAUUACGCUUA	-0.794 ± 0.14	-0.587 ± 0.14
AAGUAGCAAUAUUACGGCGG	-2.56 ± 0.17	-0.842 ± 0.15

Source: the supplement of paper PMC7877785
